Bridge positions count the residues as written; N and C are the ends. Square brackets hold non-standard residues; d marks the D form. MB = Monomer B = PyrS, Alloc-pyrrolidine stapling residue (allyl carbamate on pyrrolidine N); R8 = C=CCCCCCC[C@@](C)(N)C(=O)O
T1: full-length beta-catenin (UniProt P35222 2-781, limits assumed)
T1 construct: mature; also called full-length ß-Catenin; β-catenin
T1 sequence (looked up): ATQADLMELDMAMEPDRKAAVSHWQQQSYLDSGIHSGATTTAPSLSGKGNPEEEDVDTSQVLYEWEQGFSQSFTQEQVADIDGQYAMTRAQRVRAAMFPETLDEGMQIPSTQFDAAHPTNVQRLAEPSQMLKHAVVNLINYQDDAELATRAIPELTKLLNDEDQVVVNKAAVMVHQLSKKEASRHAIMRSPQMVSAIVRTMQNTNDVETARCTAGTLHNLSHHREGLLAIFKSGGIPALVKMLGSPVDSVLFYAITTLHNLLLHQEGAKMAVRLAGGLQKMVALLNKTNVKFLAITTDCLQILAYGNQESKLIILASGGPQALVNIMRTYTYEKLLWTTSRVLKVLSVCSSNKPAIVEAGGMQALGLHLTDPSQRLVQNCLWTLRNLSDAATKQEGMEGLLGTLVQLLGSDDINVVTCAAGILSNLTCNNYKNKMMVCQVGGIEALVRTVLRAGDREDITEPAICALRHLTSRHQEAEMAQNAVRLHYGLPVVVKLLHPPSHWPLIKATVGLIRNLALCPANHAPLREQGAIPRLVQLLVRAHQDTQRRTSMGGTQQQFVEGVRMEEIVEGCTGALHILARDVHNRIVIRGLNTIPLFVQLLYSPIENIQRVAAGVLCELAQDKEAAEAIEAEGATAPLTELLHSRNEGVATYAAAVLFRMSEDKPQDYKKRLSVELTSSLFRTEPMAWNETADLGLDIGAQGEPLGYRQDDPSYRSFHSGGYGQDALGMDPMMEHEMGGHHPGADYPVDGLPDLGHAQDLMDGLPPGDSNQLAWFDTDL

T2: biotinylated beta-catenin (UniProt P35222 134-665, limits assumed, biotinylated (site not stated))
T2 construct: also called beta-catenin (SPR); armadillo domain of β-catenin
T2 sequence (looked up): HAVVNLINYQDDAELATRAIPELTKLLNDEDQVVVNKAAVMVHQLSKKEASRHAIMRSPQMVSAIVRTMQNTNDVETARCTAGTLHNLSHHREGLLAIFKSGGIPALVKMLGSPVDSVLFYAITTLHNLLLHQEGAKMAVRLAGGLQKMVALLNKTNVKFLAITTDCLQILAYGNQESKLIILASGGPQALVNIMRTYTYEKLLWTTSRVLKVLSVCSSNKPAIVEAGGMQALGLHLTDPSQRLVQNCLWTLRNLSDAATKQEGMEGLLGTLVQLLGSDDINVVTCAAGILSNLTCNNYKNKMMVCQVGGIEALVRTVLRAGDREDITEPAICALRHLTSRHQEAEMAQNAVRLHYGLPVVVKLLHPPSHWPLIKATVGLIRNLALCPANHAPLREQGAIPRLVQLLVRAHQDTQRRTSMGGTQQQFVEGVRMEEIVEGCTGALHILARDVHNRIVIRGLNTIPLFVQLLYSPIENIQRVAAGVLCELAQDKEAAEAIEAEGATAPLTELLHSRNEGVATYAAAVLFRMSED


Assays:
full-length beta-catenin [1] = target: T1, full-length beta-catenin; assay: competition FP, grade of FP EC50 (+: 500-5000 nM); competition FP vs FITC probe, 15 nM full-length beta-catenin, peptide diluted from 5 µM; grade + (500-5000 nM EC50)
Description: (§1) In some embodiments, a competition fluorescence polarization assay is used to assess binding of provided compounds to beta-catenin. In an exemplary procedure, solutions of provided compounds, e.g., provided stapled peptides, were prepared in a buffer (e.g., 50 mM Tris pH 8.0, 250 mM NaCl, 2% glycerol, 0.5 mM EDTA, 0.02% w/v sodium azide) using a 3-fold serial dilution from 5 µM. Probe solution (15 nM full-length ß-Catenin, 20 nM FITC labeled peptide in buffer) was prepared and incubated for a period of time, e.g., 5 minutes, and the a volume, e.g., 40 µL per well plated in suitable plate, e.g., a black polystyrene 384-well plate (Corning). Equal volume of the serial diluted peptide was added to the plate and incubated protected from light for 15 minutes prior to read. Reads were performed on a Spectramax M5 (Molecular Devices) in duplicate. Suitable probe was FITC-PEG1-PQ-S5-ILD-S5-HVRRVWR (SEQ ID NO: 1) (hydrocarbon staple formed by two S5 via olefin metathesis) and/or FITC-bA-PQ-S5-ILD-S5-HVRRVWR (SEQ ID NO: 3) (hydrocarbon staple formed by two S5 via olefin metathesis). […] Another peptide, FPO217c (Ac-AR_8ILDAHIM$B5$RVW (SEQ ID NO: 280), with N-terminal proline removed and valine replaced with isoleucine compared to FP0025c) was prepared.

full-length beta-catenin [2] = target: T1, full-length beta-catenin; assay: competition FP, grade of FP EC50 (+++: <=100 nM)
In short: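 Compound 3-fold serially diluted from 5 µM in Tris pH 8.0, 250 mM NaCl buffer, added to premixed 15 nM full-length β-catenin and 20 nM FITC-labelled stapled axin-site peptide probe. Incubated 15 min in the dark, polarization read in duplicate.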

full-length beta-catenin [3] = target: T1, full-length beta-catenin; assay: competition FP
Description: as §1

full-length beta-catenin [4] = target: T1, full-length beta-catenin; assay: Axin competition fluorescence polarization; 15 nM full-length beta-catenin, 20 nM FITC-StAx-33 probe displaced by titrated peptide
[5] = target: T2, biotinylated beta-catenin; assay: SPR (Biacore, biotinylated beta-catenin)
Description: (§2) Additionally or alternatively, binding to beta-catenin may be measured by Surface Plasmon Resonance. In an exemplary assay, approximately 6 nmol dried peptide diluted in buffer (50 mM Tris pH 8.0, 300 mM NaCl, 2% glycerol, 0.5 mM TCEP, 0.5 mM EDTA, 0.005% Tween-20, 1 mg/mL CM Dextran, 0.02% w/v sodium azide) was assayed on a Biacore X100 using the Biacore Biotin CAPture Kit (GE Healthcare) and biotinylated beta-catenin. Results were analyzed using the Biacore X100 Evaluation Software.

[6] = target: T2, biotinylated beta-catenin; assay: Table 3 'Binding Kd (nM)'; method not stated there (SPR in Example 2)
Description: as §2

FP EC50 (full-length beta-catenin [1])	FP EC50 (full-length beta-catenin [2])	fold better potency than FP0217c Isomer 1 (full-length beta-catenin [3])	EC50 (read off the curve) (full-length beta-catenin [4])	Kd [5]	Kd [6]	Binder
500 to 5000 nM	–	–	–	–	–	AXILDAHIXRVW (not fully specified; Ac-A-R6-I-L-D-A-H-I-MF-R-V-W-NH2; amino staple R6/MF) [FP0502a]
500 to 5000 nM	–	–	–	–	–	AXILDAHIXRVW (not fully specified; Ac-A-MI-I-L-D-A-H-I-S5-R-V-W-NH2; amino staple MI/S5) [FP0506a]
–	≤ 100 nM	> 10 fold	~70 nM	2 nM	4 nM	Ac-A[R8]ILDAHI[MB]RVW-NH2 (staple 2-9; also: Isomer 2, staple olefin E/Z not assigned, also called FPO217c isomer 2; FP00217c Isomer 2) [FP0217c Isomer 2]
